{"source": "paper PMC9260958", "origin": "cited, not measured here", "target": "Cys647 (UniProt position 647, LGEVHCGTNVR)", "assay": "chemical modification (pH dependence of enzyme inactivation kinetics)", "details": "not stated (the inactivator is not named in the sentence that gives the value)", "data": [{"substance": "Protein arginine deiminase 2 (peptidylarginine deiminase 2, PAD2) (Homo sapiens (inferred; not stated in the article))", "values": [{"measurement": "pKa", "result": "∼8.2"}]}]}
